Source: patent US12226476B2, “Helper epitope peptide and application thereof” (CHINA PHARMACEUTICAL UNIVERSITY, priority 2018, dated 2025)
Non-standard residues stand in square brackets, D forms with d. Phe(4-NO2) = N[C@@H](Cc1ccc([N+](=O)[O-])cc1)C(=O)O

Key:
Test in all cases: Antibody titer in serum of immunized mice, indirect ELISA
Format in all cases: in vivo
FR-α = settings: FIG. 15; compared with the FR-α group and the FR-α-PADRE group; mice immunized subcutaneously, 50 μg, Freund's adjuvant
Procedure: (§1) The protocol is as follows: • (1) The helper epitope was connected to individual antigens or antigen epitope with the linking peptide to construct multiple fusion antigens. The sequence of the linking peptide is GPSL (i.e. Gly-Pro-Ser-Leu) (SEQ ID NO:51). • (2) The fusion antigens from (1) were emulsified adequately with complete Freund's adjuvant of the same volume. Then to immunize mice via subcutaneous injection with the emulsion at the dose of 50 μg per mouse. The strains of experimental mice including C57, Fvb and Balb/C. After 7 days and 14 days of first immunization, the fusion antigens from (1) were emulsified adequately with incomplete Freund's adjuvant of the same volume and then to immunize mice via subcutaneous injection with the emulsion at the dose of 50 μg per mouse. • (3) There are two detection methods. One is to obtain the orbital blood of immunized mice on 7, 14, 21 and 28 day respectively, centrifuge the whole blood to get the serum. Then the antibody titer is detected by indirect ELISA. The other one is: one week after the last immunization, the mice are killed to get the spleen. PBMC (peripheral blood mononuclear cells) are isolated, and the CTL-mediated cytotoxicity is detected by LDH (lactate dehydrogenase) kit.
(§2) The first step was to construct the fusion antigen. According to each fusion antigen, C57BL/6 female mice aged 6-8 weeks were randomly divided into three groups with 6 mice in each group. They were PBS group, existing antigen or antigen epitope group, antigen-PADRE or antigen epitope-PADRE group, and vaccine group containing fusion antigen.
(§3) In the second step, using fusion antigen to immunize mice via subcutaneous injection for 3 times […] 50 μg each time. Mixed with Freund's adjuvant of the same volume.
(§4) Method 1: The whole blood was collected every week after immunization and centrifugated at 6000 rpm for 20 min to obtain the serum for a total of 4 weeks. Antibody titers were detected by indirect ELISA as follows: • (1) Coating: the existing antigen or antigen epitope was diluted to 5 μg/mL with coating solution. Then the 100 μL mixed solution was added into each well of enzyme immunoassay test strip, and incubated in 37° C. incubator for 2 h; • (2) use PBST to wash each well 5 times for 5 min each time; • (3) Sealing: 150 μL locking solution was added to each well of the enzyme immunoassay test strip and incubated at 4° C. overnight. • (4) Repeat step (2); • (5) Incubation first antibody: the collected mouse serum was diluted with antibody diluent. Then the 100 μL mixed solution was added into each well, and incubated at 37° C. for 2 h; • (6) Repeat step (2); • (7) Incubating secondary antibodies: HRP-GOAT Anti-mouse IgG was diluted with antibody dilution in the ratio of 1:10000, and 100 μL dilution was added to each well, and incubated at 37° C. for 45 min; • (8) Repeat step (2); • (9) Substrate addition: 100 μL TMB substrate reaction solution was added into each well of enzyme label, and incubated at 37° C. for 15 min in darkness. • (10) Termination reaction: 50 μL 2M H2SO4 was added into each well to terminate the reaction. • (11) Color development: the absorbance value of the sample in each well was detected at 450/630 nm.

CD66e = settings: FIG. 6; compared with the CD66e group and the CD66e-PADRE group; mice immunized subcutaneously, 50 μg, Freund's adjuvant
Procedure: as §1, §2, §3, §4

IL-2Ra = settings: FIG. 9; compared with the IL-2Ra group and the IL-2Ra-PADRE group; mice immunized subcutaneously, 50 μg, Freund's adjuvant
Procedure: as §1, §2, §3, §4

TOLL-1 = settings: FIG. 12; compared with the TOLL-1 group and the TOLL-1-PADRE group; mice immunized subcutaneously, 50 μg, Freund's adjuvant
Procedure: as §1, §2, §3, §4

[1] = system: VEGFR extracellular domain; settings: FIG. 8; compared with the VEGFR extracellular region group and the VEGFR-PADRE group; mice immunized subcutaneously, 50 μg, Freund's adjuvant
Procedure: as §1, §2, §3, §4

CD20 = settings: FIG. 5; compared with the CD20 group and the CD20-PADRE group; mice immunized subcutaneously, 50 μg, Freund's adjuvant
Procedure: as §1, §2, §3, §4

EGFR = settings: FIG. 4; compared with the EGFR group and the EGFR-PADRE group; mice immunized subcutaneously, 50 μg, Freund's adjuvant
Procedure: as §1, §2, §3, §4

PD-L1 molecule = settings: FIG. 2; compared with the PD-L1 group and the PD-L1-PADRE group; mice immunized subcutaneously, 50 μg, Freund's adjuvant
Procedure: as §1, §2, §3, §4

PSMA = settings: FIG. 11; compared with the PSMA group and the PSMA-PADRE group; mice immunized subcutaneously, 50 μg, Freund's adjuvant
Procedure: as §1, §2, §3, §4

B1: FRα-3 ? 8pPhe-PADRE: fusion antigen: FR-α linked via GPSL to helper epitope SEQ ID NO: 16 (protein)
chain: RIAWARTELLNVCMNAKHHKEKPGPEDKLHEQCRPWRKNACCSTNTSQEAHKDVSYLYRFNWNHCGEMAPACKRHFIQDTCLYECSPNLGPWIQQVDQSWRKERVLNVPLCKEDCEQWWEDCRTSYTCKSNWHKGWNWTSGFNKCAVGAACQPFHFYFPTPTVLCNEIWTHSYKVSNYSRGSGRCIQMWFDPAQGNPNEEVARFYAAAMSGPSLAKXVAAWXLKAAA
modifications: pPhe non-natural residue; (217)..(217) Xaa stands for 4-Nitrophenylalanine.; (222)..(222) Xaa stands for 4-Nitrophenylalanine.
- antibody titers (FR-α): increased significantly

B2: CD66e-6pPhe-PADRE: fusion antigen: CD66e linked via GPSL to helper epitope SEQ ID NO: 7 (protein)
chain: KLTIESTPFNVAEGKEVLLLVHNLPQHLFGYSWYKGERVDGNRQIIGYVIGTQQATPGPAYSGREIIYPNASLLIQNIIQNDTGFYTLHVIKSDLVNEEATGQFRVYPELPKPSISSNNSKPVEDKDAVAFTCEPETQDATYLWWVNNQSLPVSPRLQLSNGNRTLTLFNVTRNDTASYKCETQNPVSARRSDSVILNVLYGPDAPTISPLNTSYRSGENLNLSCHAASNPPAQYSWFVNGTFQQSTQELFIPNITVNNSGSYTCQAHNSDTGLNRTTVTTITVYAEPPKPFITSNNSNPVEDEDAVALTCEPEIQNTTYLWWVNNQSLPVSPRLQLSNDNRTLTLLSVTRNDVGPYECGIQNKLSVDHSDPVILNVLYGPDDPTISPSYTYYRPGVNLSLSCHAASNPPAQYSWLIDGNIQQHTQELFISNITEKNSGLYTCQANNSASGHSRTTVKTITVSAELPKPSISSNNSKPVEDKDAVAFTCEPEAQNTTYLWWVNGQSLPVSPRLQLSNGNRTLTLFNVTRNDARAYVCGIQNSVSANRSDPVTLDVLYGPDTPIISPPDSSYLSGANLNLSCHSASNPSPQYSWRINGIPQQHTQVLFIAKITPNNNGTYACFVSNLATGRNNSIVKSITVSASGTSPGLSAGPSLAKFVA[Phe(4-NO2)]WTLKAAA
- antibody titer (CD66e): significant increase

B3: IL/2Ra-9pPhe-PADRE: fusion antigen: IL-2Ra linked via GPSL to helper epitope SEQ ID NO: 10 (protein)
chain: ELCDDDPPEIPHATFKAMAYKEGTMLNCECKRGFRRIKSGSLYMLCTGNSSHSSWDNQCQCTSSATRNTTKQVTPQPEEQKERKTTEMQSPMQPVDQASLPGHCREPPPWENEATERIYHFVVGQMVYYQCVQGYRALHRGPAESVCKMTHGKTRWTQPQLICTGEMETSQFPGEEKPQASPEGRPESETSCLVTTTDFQIQTEMAATMETSIFTTEYQGPSLAKFVAAWT[Phe(4-NO2)]KAAA
- antibody titers (IL-2Ra): increased significantly

B4: TOLL/1-12pPhe-PADRE: fusion antigen: TOLL-1 linked via GPSL to helper epitope SEQ ID NO: 13 (protein)
chain: SEFLVDRSKNGLIHVPKDLSQKTTILNISQNYISELWTSDILSLSKLRILIISHNRIQYLDISVFKFNQELEYLDLSHNKLVKISCHPTVNLKHLDLSFNAFDALPICKEFGNMSQLKFLGLSTTHLEKSSVLPIAHLNISKVLLVLGETYGEKEDPEGLQDFNTESLHIVFPTNKEFHFILDVSVKTVANLELSNIKCVLEDNKCSYFLSILAKLQTNPKLSNLTLNNIETTWNSFIRILQLVWHTTVWYFSISNVKLQGQLDFRDFDYSGTSLKALSIHQVVSDVFGFPQSYIYEIFSNMNIKNFTVSGTRMVHMLCPSKISPFLHLDFSNNLLTDTVFENCGHLTELETLILQMNQLKELSKIAEMTTQMKSLQQLDISQNSVSYDEKKGDCSWTKSLLSLNMSSNILTDTIFRCLPPRIKVLDLHSNKIKSIPKQVVKLEALQELNVAFNSLTDLPGCGSFSSLSVLIIDHNSVSHPSADFFQSCQKMRSIKAGDNPFQCTCELGEFVKNIDQVSSEVLEGWPDSYKCDYPESYRGTLLKDFHMSELSCNITGPSLAKFVAAWTLKA[Phe(4-NO2)]A
- antibody titers (TOLL-1): increased significantly

B5: VEGFR-8pPhe-PADRE: fusion antigen: VEGFR extracellular domain linked via GPSL to helper epitope SEQ ID NO: 9 (protein)
chain: ASVGLPSVSLDLPRLSIQKDILTIKANTTLQITCRGQRDLDWLWPNNQSGSEQRVEVTECSDGLFCKTLTIPKVIGNDTGAYKCFYRETDLASVIYVYVQDYRSPFIASVSDQHGVVYITENKNKTVVIPCLGSISNLNVSLCARYPEKRFVPDGNRISWDSKKGFTIPSYMISYAGMVFCEAKINDESYQSIMYIVVVVGYRIYDVVLSPSHGIELSVGEKLVLNCTARTELNVGIDFNWEYPSSKHQHKKLVNRDLKTQSGSEMKKFLSTLTIDGVTRSDQGLYTCAASSGLMTKKNSTFVRVHEKPFVAFGSGMESLVEATVGERVRIPAKYLGYPPPEIKWYKNGIPLESNHTIKAGHVLTIMEVSERDTGNYTVILTNPISKEKQSHVVSLVVYVPPQIGEKSLISPVDSYQYGTTQTLTCTVYAIPPPHHIHWYWQLEEECANEPSQAVSVTNPYPCEEWRSVEDFQGGNKIEVNKNQFALIEGKNKTVSTLVIQAANVSALYKCEAVNKVGRGERVISFHVTRGPEITLQPDMQPTEQESVSLWCTADRSTFENLTWYKLGPQPLPIHVGELPTPVCKNLDTLWKLNATMFSNSTNDILIMELKNASLQDQGDYVCLAQDRKTKKRHCVVRQLTVLERVAPTITGNLENQTTSIGESIEVSCTASGNPPPQIMWFKDNETLVEDSGIVLKDGNRNLTIRRVRKEDEGLYTCQACSVLGCAKVEAFFIIEGAQEKTNLEGPSLAKFVAAW[Phe(4-NO2)]LKAAA
- antibody titers [1]: increased significantly

B6: CD20-5pPhe-PADRE: fusion antigen: CD20 linked via GPSL to helper epitope SEQ ID NO: 6 (protein)
chain: MTTPRNSVNGTFPAEPMKGPIAMQSGPKPLFRRMSSLVGPTQSFFMRESKTLGAVQIMNGLFHIALGGLLMIPAGIYAPICVTVWYPLWGGIMYIISGSLLAATEKNSRKCLVKGKMIMNSLSLFAAISGMILSIMDILNIKISHFLKMESLNFIRAHTPYINIYNCEPANPSEKNSPSTQYCYSIQSLFLGILSVMLIFAFFQELVIAGIVENEWKRTCSRPKSNIVLLSAEEKKEQTIEIKEEVVGLTETSSQPKNEEDIEIIPIQEEEEEETETNFPEPPQDQESSPIENDSSPGPSLAKFV[Phe(4-NO2)]AWTLKAAA
- antibody titer (CD20): significant increase

B7: EGFR-4pPhe-PADRE: fusion antigen: EGFR linked via GPSL to helper epitope SEQ ID NO: 5 (protein)
chain: MERKERPFDVIGQLAALRRYARSLVRNSDDAEDLVHDALLRAYEKKQSFRRGGNLRTWLLSIMHNAHIDRVRQARSLARRHDEAAVEAEQSLQAGQEHAVRLKQVRDAFFHLSEEQREALHLVAIEDLSYQEAAMALDIPIGTLMSRISRARAQLREFEEKTPRAAHLRLIGGDGNEGNGPSLAKF[Phe(4-NO2)]AAWTLKAAA
- antibody titer (EGFR): increased significantly

B8: PD/L1-2pPhe-PADRE: fusion antigen: PD-L1 molecule linked via GPSL to helper epitope SEQ ID NO: 3 (protein)
chain: MQLKPMEINPEMLNKVLSRLGVAGQWRFVDVLGLEEESLGSVPAPACALLLLFPLTAQHENFRKKQIEELKGQEVSPKVYFMKQTIGNSCGTIGLIHAVANNQDKLGFEDGSVLKQFLSETEKMSPEDRAKCFEKNEAIQAAHDAVAQEGQCRVDDKVNFHFILFNNVDGHLYELDGRMPFPVNHGASSEDTLLKDAAKVCREFTEREQGEVRFSAVALCGPSLA[Phe(4-NO2)]FVAAWTLKAAA
- antibody titer (PD-L1 molecule): significant increase

B9: PSMA-11pPhe-PADRE: fusion antigen: PSMA linked via GPSL to helper epitope SEQ ID NO: 12 (protein)
chain: QGQAQQQAYDRGITIFSPDGRLYQVEYAREAVKRGTASIGVRTPEGVVLAADKRSRSPLMEPTSVEKIHKADDHIGIASAGHVADARQLIDFARRQSQVNRLRYGEPIGIETLTKEVTDHIQQYTQVGGARPFGVALLIGGVENGTPRLYETDPSGTPYEWKAVSIGADRGDHQEHLEENFRDDLTLDEGIELALEAIASTSDEGTAPDGVDVATVSAETERFVELSNDEIESYLEANDLLATEDDEQTEEGPSLAKFVAAWTLK[Phe(4-NO2)]AA
- antibody titers (PSMA): increased significantly
